Source: patent CN111138529A (INST MILITARY MEDICINE ACADEMY MILITARY SCIENCES PLA, dated 2020)

Biological target: T1, RESTV GP (RESTV, UniProt Q66799 34-651)
T1 sequence: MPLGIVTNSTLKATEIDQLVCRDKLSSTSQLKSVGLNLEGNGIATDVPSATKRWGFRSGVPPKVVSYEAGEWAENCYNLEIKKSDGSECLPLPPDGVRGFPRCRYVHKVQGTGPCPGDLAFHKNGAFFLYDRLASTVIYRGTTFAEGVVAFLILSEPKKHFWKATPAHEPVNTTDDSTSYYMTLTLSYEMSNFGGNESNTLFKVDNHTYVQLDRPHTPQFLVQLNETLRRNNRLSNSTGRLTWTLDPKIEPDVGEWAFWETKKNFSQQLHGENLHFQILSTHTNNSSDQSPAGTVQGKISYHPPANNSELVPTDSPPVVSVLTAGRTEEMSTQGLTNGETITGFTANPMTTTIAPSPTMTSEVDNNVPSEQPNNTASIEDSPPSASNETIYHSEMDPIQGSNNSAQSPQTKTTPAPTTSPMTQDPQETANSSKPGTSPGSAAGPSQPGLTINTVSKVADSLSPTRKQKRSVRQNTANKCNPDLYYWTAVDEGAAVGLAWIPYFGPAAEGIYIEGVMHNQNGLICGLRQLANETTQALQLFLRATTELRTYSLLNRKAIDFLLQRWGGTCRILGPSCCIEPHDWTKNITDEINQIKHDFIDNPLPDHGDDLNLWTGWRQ
Assay: ELISA, coated GP 1μg/mL

B1: 单克隆抗体5E1 (antibody, V domains shown)
VH: EVQLVESGGGVVQSGRSLRLSCAASGFTFSNYGMHWVRRAPGKGLEWVAVISYDGSIKYYADAVQGRFTISRDNSKNTLYLQMNSVRAEDRAVYYCAKGSRVVATLNFFDLWGRGTLVTVSS
VL: AIRMTQSPSSLSASVGDRVTITCRASQDIRNFLAWYQQKPEKAPKLLVYTASRRESGVPPRLSGSGSGTEYTLTISSLQPEDFATYYCQQYYSTPPTFGQGTKVDIKT
- binding result: no binding
